Test results: patent publication KR20220059924A (dated 2022)

Experiments:
개 Tie2 단백질 = biological target: T1, 개 Tie2 단백질 (dog, UniProt A0A8I3S0B4 27-1128); assay: flow cytometry, HEK293T cells transfected with dog Tie2
T1 construct: whole, on cells; also called dog Tie2

랫 Tie2 단백질 = biological target: T2, 랫 Tie2 단백질 (rat, UniProt A0ABK0L6J5 19-1116); assay: flow cytometry, HEK293T cells transfected with rat Tie2
T2 construct: whole, on cells; also called rat Tie2

마우스 Tie2 단백질 = biological target: T3, 마우스 Tie2 단백질 (mouse, UniProt Q02858 23-1122); assay: flow cytometry, HEK293T cells transfected with mouse Tie2
T3 construct: whole, on cells; also called mouse Tie2
T3 sequence (Q02858 23-1122): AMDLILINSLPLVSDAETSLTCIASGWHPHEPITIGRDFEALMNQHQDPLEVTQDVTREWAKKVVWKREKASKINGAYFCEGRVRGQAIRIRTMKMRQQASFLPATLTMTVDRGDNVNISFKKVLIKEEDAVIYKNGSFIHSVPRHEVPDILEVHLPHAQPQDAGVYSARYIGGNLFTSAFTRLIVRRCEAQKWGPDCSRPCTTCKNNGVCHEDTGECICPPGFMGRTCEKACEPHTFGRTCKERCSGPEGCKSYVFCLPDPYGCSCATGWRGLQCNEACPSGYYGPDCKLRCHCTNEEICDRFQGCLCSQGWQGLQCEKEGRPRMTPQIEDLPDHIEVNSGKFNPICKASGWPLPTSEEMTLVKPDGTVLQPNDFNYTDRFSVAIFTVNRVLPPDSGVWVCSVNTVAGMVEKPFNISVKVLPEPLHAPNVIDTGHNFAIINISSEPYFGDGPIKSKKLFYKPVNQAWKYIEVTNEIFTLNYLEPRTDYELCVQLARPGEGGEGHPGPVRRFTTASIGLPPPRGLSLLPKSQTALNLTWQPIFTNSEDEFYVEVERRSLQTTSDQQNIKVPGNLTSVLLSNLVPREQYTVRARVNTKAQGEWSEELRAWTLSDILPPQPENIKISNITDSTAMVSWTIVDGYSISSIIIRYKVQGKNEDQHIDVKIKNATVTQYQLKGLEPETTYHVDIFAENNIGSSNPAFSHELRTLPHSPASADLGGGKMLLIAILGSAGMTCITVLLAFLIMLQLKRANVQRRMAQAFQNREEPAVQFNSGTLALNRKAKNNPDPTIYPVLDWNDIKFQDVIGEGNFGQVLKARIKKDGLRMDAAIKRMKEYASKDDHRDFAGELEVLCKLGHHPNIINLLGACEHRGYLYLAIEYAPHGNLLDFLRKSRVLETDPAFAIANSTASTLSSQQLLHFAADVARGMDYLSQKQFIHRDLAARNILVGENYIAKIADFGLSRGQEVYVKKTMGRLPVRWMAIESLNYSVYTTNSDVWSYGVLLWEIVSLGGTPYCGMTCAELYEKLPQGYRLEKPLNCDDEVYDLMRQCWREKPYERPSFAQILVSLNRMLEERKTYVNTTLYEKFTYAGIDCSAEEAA

binding result (개 Tie2 단백질): no binding (tested: 5ug/ml) | binding result (랫 Tie2 단백질): no binding (tested: 5ug/ml) | binding result (마우스 Tie2 단백질): no binding (tested: 5ug/ml)
B1: Ang1mab2-1 (antibody, human IgG1, kappa, V domains shown)
VH: QVQLVESGGGVVQPGRSLRLSCAASGFTFSSYAMHWVRQAPGKGLEWVAVISYDGSNKYYADSVKGRFTISRDNSKNTLYLQMNSLRAEDTAVYYCARQYSGVFEYWGQGTLITVSS
VL: DIQMTQSPDSLAVSLGERATINCKSSQSVLYRSNNRNYLAWYQQKLGQPPQLLIYWASTRESGVPDRFSGSGSGADFTLTISSLQAEDVAVYYCQQYFSIPYTFGQGTKLEIKR
notes: also called 제2 기본 항체
